Source: the supplement of paper PMC9170038

Tested on: MS2 coat protein
Assay: apparent KD of MS2 coat protein; higher = weaker reporter binding
Details: Eterna round: R107
Experimental: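 RNA-MaP round R107: designed RNA switches with theophylline, tryptophan, arginine or FMN aptamers are transcribed on-chip within common flanks. They are titrated with SNAP-549-labelled MS2 coat protein in RNA-MaP buffer (100 mM Tris pH 7.5, 80 mM KCl, 4 mM MgCl2), without ligand or with the indicated ligand. Median apparent KD per design.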

[1] = input ligand: theophylline 20 uM
[2] = input ligand: tryptophan 2.4 mM
[3] = input ligand: theophylline 2 mM

| Sequence | apparent KD of MS2 coat protein (input ligand: arginine 13.2 mM) | apparent KD of MS2 coat protein [1] | apparent KD of MS2 coat protein [2] | apparent KD of MS2 coat protein [3] | apparent KD of MS2 coat protein (input ligand: none) |
| --- | --- | --- | --- | --- | --- |
| AAUCGCCUGGGUCGCAUCCUUGCUCCGGAUACCAGUCAAUAGUUGGACCCUUGGCAGCCGUAGACAUGAGGAUCACCCAUGUAUA [theeternabot_exclusion_MS2_Theo_A_42] | 30.2 nM | 85.5 nM | 55.9 nM |  |  |
| AAUUAUCAGUCGGCCGCCACUGACACAUGAGGAUCACCCAUGUAACUUGGGUUAAAUUUAAUAAACAGGACCGGGACAAAGGCUA [JR_ExcTryptoB_Sub010] | 94.4 nM | 189 nM |  | 192 nM |  |
| AAUUUUAACGGAAGGAGCGUCACGUAAUUCAUACAUGAGGAUCACCCAUGUUAGUUGUAGAGACAGGUAGGUCGCCGUUAUUUGA [JR_AAArginiB_Sub025] | 15.7 nM | 20.9 nM | 17 nM | 17.1 nM | 15.7 nM |
| ACACAUGAGGAUCACCCAUGUGCAAUAGAUACCAGUGACGCGGUGCACCCUUGGCAGCUGUUGCUGAGUGAUGGUUCCCUCGGAA [Exclusion Theophylline A GF 6] | 17.9 nM | 57.6 nM | 42.1 nM |  |  |
| ACACAUGAGGAUCACCCAUGUGCGCUGGAAGGAGCGCAGAAUCAUGCAGGUAGGUCGCCAGUGCCUUUUGAUAAAGGGAAAAGAA [Cezaquce] | 66.1 nM | 94.6 nM | 60.6 nM | 69.3 nM | 86.1 nM |
| ACACAUGAGGAUCACCCAUGUUCAAUAGAUACCAGUGAUACGGUGCACCCUUGGCAGCUGUUGCUGAGUGAUGGUUCCCUCGGUA [#23 SameState-TheophyllineA] | 28.1 nM | 53.9 nM | 41 nM |  |  |
| ACAUAUUGGUGGUACCAACGAAGGCGGAAACGAGGACCGGUACGGCCGCCACUCGGCGACAUGAGGAUCACCCAUGUGGUUAAAA [Exclusion - Tryptophan A (Freestyle 2)] |  | 153 nM | 972 nM | 851 nM | 149 nM |
| ACAUGAGGAUCACCCAUGUAACCUAGGGAAGGAGCGGUGUAAGAGCCAGGUAGGUCGCCCACAUGUGGAUCACCCAUGGUGAGGG [#24 Same State - Arginine A] | 22.7 nM | 44.4 nM | 26.6 nM | 39.2 nM | 29 nM |
| ACAUGAGGAUCACCCAUGUAAUCCUCUGAAGGAGCGAGAAAUAACUCAGGUAGGUCGCAGUUCAAAACAUGAGGAUCACCCAUGU [Exclusion Arginine A GF 9] | 28.9 nM | 52.6 nM | 51.1 nM | 46.2 nM | 43.3 nM |
| ACAUGAGGAUCACCCAUGUACAUGAGGGAAGGAGCGGUACAUGUGCCAGGUAGGUCGCCCAUGAGCAUCAGCCAUGUACAUCAGC [l,ommullin] | 42.1 nM | 102 nM | 75 nM | 75.3 nM | 82.7 nM |
| ACAUGAGGAUCACCCAUGUACGAGUCGGAAGGAGCGGCAAUUAAGCCAGGUAGGUCGCCGGCAGAGAGUGUCAUUGUAAGUAUGA [Same State - Arginine A / A] | 14.2 nM | 26.8 nM | 14 nM | 12.3 nM | 14.8 nM |
| ACAUGAGGAUCACCCAUGUGCCGUCUUGAUACCAGACGCGAAGUAGUCCCUUGGCAGCAAAUACGUGAGGGUCGCGCAUGUGUAA [wzxmullin] | 21.8 nM | 27.3 nM | 24.9 nM |  |  |
| ACAUGAGGAUCACCCAUGUUCCUCGCCGAUACCAGUGAAGAAUUACGCCCUUGGCAGCGGAAAGAGUGUUUUGGAGAUGAGGUAC [6.aA] | 80.5 nM | 112 nM | 100 nM |  |  |
| ACAUUAGCCACGGCCGCCACUGCCUUAUGAUUAUAAGGAUUAAUGAACAUGAGGAUCACCCAUGUCAGGACCGGGUGCCUACCAU [SSTryp B #5] | 20.1 nM | 32.5 nM |  | 26.5 nM |  |
| ACCUCAUAGGCGGCCGCCACUGUAAUGACUACGUCAAACAUGAGGAUCACCCAUGUAGUCAAUCACAGGACCGGGUCAUGGGUAG [Tryp B SS s2] | 27.7 nM | 45.6 nM |  | 41.4 nM |  |
| ACCUGCGUUUGUUUCUUUCUGACGCAGGUUCGAGGACCGGUACGGCCGCCACUCGGACAUGAGGAUCACCCAUGUUUGACAUGGG [#02 Exclusion Tryptophan A] | 229 nM | 238 nM |  | 281 nM |  |
| ACCUGUACGAAAAGUGCAGGACAGGAAAAUCGAGGACCGGUACGGCCGCCACUCGUAUAAACAAGUGGAUCACCCUUGUAACCUG [TrypAS 1 #AlternativeMS2 #Zipper] | 458 nM | 1060 nM | 1610 nM | 1760 nM | 664 nM |
